The values that follow come from PMC11297322, “MEILB2-BRME1 forms a V-shaped DNA clamp upon BRCA2-binding in meiotic recombination” (Nature Communications, 2023).

Residue numbers refer to the chain shown, from its start.

Data set [1] deals with T1, BRCA2MBD;MEILB2 K26E;BRME1MBD K26E (Mus musculus;Mus musculus;Mus musculus) (UniProt P97929+Q9D4G2+Q6DIA7).
T1 sequence 1: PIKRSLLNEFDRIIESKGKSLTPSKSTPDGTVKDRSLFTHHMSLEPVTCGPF
T1 sequence 2: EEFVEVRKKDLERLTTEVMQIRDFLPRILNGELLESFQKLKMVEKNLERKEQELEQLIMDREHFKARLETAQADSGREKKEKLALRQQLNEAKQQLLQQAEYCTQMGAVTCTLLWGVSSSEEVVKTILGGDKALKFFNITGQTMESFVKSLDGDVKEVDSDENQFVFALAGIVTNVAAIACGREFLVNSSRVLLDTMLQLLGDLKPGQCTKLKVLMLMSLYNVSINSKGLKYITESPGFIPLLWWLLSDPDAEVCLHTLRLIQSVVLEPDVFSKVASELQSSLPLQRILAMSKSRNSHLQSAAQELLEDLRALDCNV
T1 sequence 3: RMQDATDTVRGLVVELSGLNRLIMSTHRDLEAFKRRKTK
As to the kind of experiment: EMSA. The note with it: EMSA: 20 mM HEPES pH 7.5, 325 mM KCl, 60 min room temperature; 0.4% agarose, 0.5x TBE pH 8.0, 4 C; 50 uM DNA per bp/base (qualitative). Pulldown: 20 mM HEPES …. A general note: In EMSA bound probe runs differently from free probe, usually more slowly.

Data set [2] has as its target T2, BRCA2MBD;MEILB2 (22-338);BRME1MBD (Mus musculus;Mus musculus;Mus musculus) (UniProt P97929+Q9D4G2+Q6DIA7).
T2 sequence 1: T1 sequence 1
T2 sequence 2: T1 sequence 2 with E5K
T2 sequence 3: T1 sequence 3
As to the kind of experiment: EMSA. The settings on record: EMSA: 20 mM HEPES pH 7.5, 325 mM KCl, 60 min room temperature; 0.4% agarose, 0.5x TBE pH 8.0, 4 C; 50 uM DNA per bp/base (qualitative). Pulldown: 20 mM HEPES ….

Data set [3] has as its target T3, BRCA2MBD;MEILB2 (22-338);BRME1MBD (Mus musculus;Mus musculus;Mus musculus, UniProt P97929;Q9D4G2;Q6DIA7 2232-2283;22-338;540-578, ||).
T3 sequence 1: T1 sequence 1
T3 sequence 2: T1 sequence 2 with E5K
T3 sequence 3: T1 sequence 3
As to the kind of experiment: EMSA; apparent Kd, Hill n = 4; 2:4:4 complex; 50 nM DNA; EMSA: 20 mM HEPES pH 7.5, 325 mM KCl, 60 min room temperature; 0.4% agarose, 0.5x TBE pH 8.0, 4 C; 50 uM DNA per bp/base (qualitative). Pulldown: 20 mM HEPES pH 7.5, 150 mM KCl, 10% glycerol, room temperature. The note with it: protein: recombinant;recombinant;recombinant, tags: MBP tag, TEV-cleaved;His6-MBP tag, chain copies: 2;4;4, label: FAM, blunt.

For data set [4], the target named is T4, MEILB2 (22-338);BRME1MBD (Mus musculus;Mus musculus, UniProt Q9D4G2;Q6DIA7 22-338;540-578, |).
T4 sequence 1: T1 sequence 2 with E5K
T4 sequence 2: T1 sequence 3
As to the kind of experiment: EMSA; apparent Kd, Hill n = 3; 2:2 complex concentration; 50 nM DNA; EMSA: 20 mM HEPES pH 7.5, 325 mM KCl, 60 min room temperature; 0.4% agarose, 0.5x TBE pH 8.0, 4 C; 50 uM DNA per bp/base (qualitative). Pulldown: 20 mM HEPES pH 7.5, 150 mM KCl, 10% glycerol, room temperature. The settings on record: protein: recombinant;recombinant, tags: His6-MBP tag, TEV-cleaved;His6 tag, chain copies: 2;2, label: FAM, blunt.

In data set [5] the target is T5, BRCA2MBD;MEILB2 K26E;BRME1MBD (Mus musculus;Mus musculus;Mus musculus, UniProt P97929;Q9D4G2;Q6DIA7 2232-2283;22-338;540-578, |K26E|).
T5 sequence 1: T1 sequence 1
T5 sequence 2: T1 sequence 2
T5 sequence 3: T1 sequence 3
As to the kind of experiment: EMSA; EMSA: 20 mM HEPES pH 7.5, 325 mM KCl, 60 min room temperature; 0.4% agarose, 0.5x TBE pH 8.0, 4 C; 50 uM DNA per bp/base (qualitative). Pulldown: 20 mM HEPES pH 7.5, 150 mM KCl, 10% glycerol, room temperature. The note with it: protein: recombinant;recombinant;recombinant, tags: MBP tag, TEV-cleaved;His6-MBP tag, chain copies: 2;4;4, blunt.

Data set [6] deals with T6, MEILB2 (22-338);BRME1MBD R540E R549E (Mus musculus;Mus musculus, UniProt Q9D4G2;Q6DIA7 22-338;540-578, |R540E;R549E).
T6 sequence 1: T1 sequence 2 with E5K
T6 sequence 2: T1 sequence 3 with R1E, R10E
As to the kind of experiment: pull-down; 150 mM KCl; EMSA: 20 mM HEPES pH 7.5, 325 mM KCl, 60 min room temperature; 0.4% agarose, 0.5x TBE pH 8.0, 4 C; 50 uM DNA per bp/base (qualitative). Pulldown: 20 mM HEPES pH 7.5, 150 mM KCl, 10% glycerol, room temperature. The settings on record: protein: recombinant;recombinant, tags: His6-MBP tag, TEV-cleaved;His6 tag, chain copies: 2;2, blunt.

For data set [7], the target named is T4, MEILB2 (22-338);BRME1MBD. As to the kind of experiment: EMSA; EMSA: 20 mM HEPES pH 7.5, 325 mM KCl, 60 min room temperature; 0.4% agarose, 0.5x TBE pH 8.0, 4 C; 50 uM DNA per bp/base (qualitative). Pulldown: 20 mM HEPES pH 7.5, 150 mM KCl, 10% glycerol, room temperature. The note with it: protein: recombinant;recombinant, tags: His6-MBP tag, TEV-cleaved;His6 tag, chain copies: 2;2, hairpin with 3' poly(dT) overhang.

Data set [8] has as its target T3, BRCA2MBD;MEILB2 (22-338);BRME1MBD. Described as above. The settings on record: protein: recombinant;recombinant;recombinant, tags: MBP tag, TEV-cleaved;His6-MBP tag.
For data set [9], the target named is T4, MEILB2 (22-338);BRME1MBD. As to the kind of experiment: EMSA; apparent Kd, Hill n = 2; 2:2 complex concentration; 100 nM DNA; EMSA: 20 mM HEPES pH 7.5, 325 mM KCl, 60 min room temperature; 0.4% agarose, 0.5x TBE pH 8.0, 4 C; 50 uM DNA per bp/base (qualitative). Pulldown: 20 mM HEPES pH 7.5, 150 mM KCl, 10% glycerol, room temperature. The settings on record: protein: recombinant;recombinant, tags: His6-MBP tag, TEV-cleaved;His6 tag, chain copies: 2;2, label: 5'-FAM.

For the molecule “ATGGAATCTAAAGAAGAATTTGTTAAAGTCAGAAAGAAGGACCTGGAACGGCTGACGACGGAAGTGATGCAAATACGGGACTTCTTACCCAGAATACTAAATGGGGAGTTACTGGAAAGTTTCCAGAAATTAAAGATGGTAGAAAAAAACCTGGAAAGAAAAGAACAAGAATTAGAGCAACTGATAATGGACCGTGAACACTTCAAAGCCCGGCTAGAAACTGCACAGGCAGACAGTGGGAGGGAGAAGAAGGAGAAGTTGGCTCTTCGACAGCAGCTGAATGAGGCAAAACAGCAGCTC (double strand) [FAM-300 bp dsDNA]”, the Kd in [1] came out at 300 nM; in data set [2] it was 310 nM.

B1: FAM-75 bp dsDNA (dsDNA)
DNA 1: ATGGAATCTAAAGAAGAATTTGTTAAAGTCAGAAAGAAGGACCTGGAACGGCTGACGACGGAAGTGATGCAAATA
DNA 2: TATTTGCATCACTTCCGTCGTCAGCCGTTCCAGGTCCTTCTTTCTGACTTTAACAAATTCTTCTTTAGATTCCAT
With B1, the Kd in data set [3] came out at 400 ± 40 nM; with MEILB2 (22-338);BRME1MBD [4] it was 520 ± 60 nM.

B2: 75 bp dsDNA (dsDNA)
DNA 1: B1 DNA 1
DNA 2: B1 DNA 2
For the molecule B2, in data set [5], the binding result is on record as “no binding”.

B3: biotin-75 bp dsDNA (dsDNA)
DNA 1: B1 DNA 1
DNA 2: B1 DNA 2
For B3, the binding result in [6] is “no binding”.

B4: ssDNA-dsDNA junction (5' hairpin-poly(dT) 3') (structured_DNA)
DNA: CCGGCCCGCGGTGTCCGCGGGCCGGTTTTTTTTTTTTTTTTTTTTTTTTTTTTTTTTTTTTTTTTTTTTTTTTTT
Turning to B4, the binding result with MEILB2 (22-338);BRME1MBD [7] is “binds”; in data set [8] (chain copies: 2;4;4, hairpin with 3' poly(dT) overhang) it was “binds”.

B5: 75 base FAM-poly(dT) (ssDNA)
DNA: TTTTTTTTTTTTTTTTTTTTTTTTTTTTTTTTTTTTTTTTTTTTTTTTTTTTTTTTTTTTTTTTTTTTTTTTTTT
B5: the binding result in [8] (chain copies: 2;4;4, label: 5'-FAM) is listed as “binds”. Besides, the Kd with MEILB2 (22-338);BRME1MBD [9] was found to be 870 ± 70 nM.
